Measurements taken from PMC7642682, “SPOR Proteins Are Required for Functionality of Class A Penicillin-Binding Proteins in Escherichia coli” (mBio, 2020).

Assays:
[1] = biological target: T1, penicillin-binding protein 1B (PBP1B) (Escherichia coli, UniProt P02919 1-844); assay: cell-based or functional assay
T1 sequence (looked up): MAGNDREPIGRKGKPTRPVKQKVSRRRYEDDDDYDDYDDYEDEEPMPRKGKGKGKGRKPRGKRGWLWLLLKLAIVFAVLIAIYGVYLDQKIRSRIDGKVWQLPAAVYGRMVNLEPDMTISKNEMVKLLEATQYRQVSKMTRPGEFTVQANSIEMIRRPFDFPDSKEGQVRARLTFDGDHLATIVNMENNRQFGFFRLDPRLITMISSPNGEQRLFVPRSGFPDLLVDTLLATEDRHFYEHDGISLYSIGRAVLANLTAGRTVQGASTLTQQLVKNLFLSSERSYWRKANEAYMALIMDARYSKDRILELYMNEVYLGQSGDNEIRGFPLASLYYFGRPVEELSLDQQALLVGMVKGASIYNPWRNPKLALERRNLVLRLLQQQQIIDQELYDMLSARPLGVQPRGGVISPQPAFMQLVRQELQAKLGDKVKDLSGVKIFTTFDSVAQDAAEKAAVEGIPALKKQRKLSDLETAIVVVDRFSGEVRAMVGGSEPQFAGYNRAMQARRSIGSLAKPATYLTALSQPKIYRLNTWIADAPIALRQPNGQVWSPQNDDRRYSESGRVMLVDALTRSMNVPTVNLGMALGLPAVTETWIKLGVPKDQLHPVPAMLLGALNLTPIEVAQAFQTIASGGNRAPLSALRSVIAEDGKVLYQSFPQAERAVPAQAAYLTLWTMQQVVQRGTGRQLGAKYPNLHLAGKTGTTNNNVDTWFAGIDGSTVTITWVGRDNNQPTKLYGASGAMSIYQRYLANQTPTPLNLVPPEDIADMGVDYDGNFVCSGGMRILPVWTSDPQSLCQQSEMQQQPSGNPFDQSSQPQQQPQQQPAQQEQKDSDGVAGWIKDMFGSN

[2] = biological target: T2, penicillin-binding protein 1A (PBP1A) (Escherichia coli, UniProt P02918 1-850); assay: cell-based or functional assay
T2 sequence (looked up): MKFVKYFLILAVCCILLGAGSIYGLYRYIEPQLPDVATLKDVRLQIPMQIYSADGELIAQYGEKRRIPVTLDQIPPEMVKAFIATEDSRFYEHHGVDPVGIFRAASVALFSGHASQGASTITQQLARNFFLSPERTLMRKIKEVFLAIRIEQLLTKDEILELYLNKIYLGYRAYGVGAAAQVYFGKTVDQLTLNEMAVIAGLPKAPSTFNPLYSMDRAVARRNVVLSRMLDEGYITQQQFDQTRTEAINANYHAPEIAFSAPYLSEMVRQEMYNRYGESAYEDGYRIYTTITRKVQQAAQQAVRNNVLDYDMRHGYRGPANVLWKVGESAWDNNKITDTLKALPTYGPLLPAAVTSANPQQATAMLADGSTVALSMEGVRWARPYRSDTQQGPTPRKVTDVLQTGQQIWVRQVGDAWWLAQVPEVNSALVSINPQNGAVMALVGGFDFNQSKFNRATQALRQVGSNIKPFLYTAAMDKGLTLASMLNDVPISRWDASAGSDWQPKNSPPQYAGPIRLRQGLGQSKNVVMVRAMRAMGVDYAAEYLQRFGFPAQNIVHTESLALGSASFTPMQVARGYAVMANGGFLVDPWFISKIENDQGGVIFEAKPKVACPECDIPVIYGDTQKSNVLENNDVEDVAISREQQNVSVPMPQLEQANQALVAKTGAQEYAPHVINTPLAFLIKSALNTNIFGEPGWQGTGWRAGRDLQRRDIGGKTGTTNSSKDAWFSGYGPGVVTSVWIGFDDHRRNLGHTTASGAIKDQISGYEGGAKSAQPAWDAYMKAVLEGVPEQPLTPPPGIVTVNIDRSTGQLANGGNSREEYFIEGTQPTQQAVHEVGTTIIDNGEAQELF

B1: His-DedD (natural protein, Escherichia coli, UniProt P09549 1-220, looked up)
chain: MASKFQNRLVGTIVLVALGVIVLPGLLDGQKKHYQDEFAAIPLVPKAGDRDEPDMMPAATQALPTQPPEGAAEEVRAGDAAAPSLDPATIAANNTEFEPEPAPVAPPKPKPVEPPKPKVEAPPAPKPEPKPVVEEKAAPTGKAYVVQLGALKNADKVNEIVGKLRGAGYRVYTSPSTPVQGKITRILVGPDASKDKLKGSLGELKQLSGLSGVVMGYTPN
- GTase rate of PBP1B (consumption of fluorescent dansyl-lipid II), fold over PBP1B alone; 0.5 uM PBP1B, 2 uM purified DedD [1]: 2.6 fold
- GTase rate of PBP1A (consumption of fluorescent dansyl-lipid II), fold over PBP1A alone; 0.5 uM PBP1A, 2 uM purified DedD [2]: 1.8 fold

B2: His-DamX (natural protein, Escherichia coli, UniProt P11557 1-428, looked up)
chain: MDEFKPEDELKPDPSDRRTGRSRQSSERSERTERGEPQINFDDIELDDTDDRRPTRAQKERNEEPEIEEEIDESEDETVDEERVERRPRKRKKAASKPASRQYMMMGVGILVLLLLIIGIGSALKAPSTTSSDQTASGEKSIDLAGNATDQANGVQPAPGTTSAENTQQDVSLPPISSTPTQGQTPVATDGQQRVEVQGDLNNALTQPQNQQQLNNVAVNSTLPTEPATVAPVRNGNASRDTAKTQTAERPSTTRPARQQAVIEPKKPQATVKTEPKPVAQTPKRTEPAAPVASTKAPAATSTPAPKETATTAPVQTASPAQTTATPAAGAKTAGNVGSLKSAPSSHYTLQLSSSSNYDNLNGWAKKENLKNYVVYETTRNGQPWYVLVSGVYASKEEAKKAVSTLPADVQAKNPWAKPLRQVQADLK
- GTase rate of PBP1B (consumption of fluorescent dansyl-lipid II), fold over PBP1B alone; 0.5 uM PBP1B, 2 uM purified DamX [1]: 2 fold
